Source: patent US20210095021A1 (MacroGenics, published 2021)

B1: anti-CD3 × anti-HIV gp120 bispecific diabody (anti-HIV gp120 antibody A32 and humanized anti-CD3 Antibody 2 binding domains) (bispecific antibody)
chain 1: QSALTQPPSASGSPGQSVTISCTGTSSDVGGYNYVSWYQHHPGKAPKLIISEVNNRPSGVPDRFSGSKSGNTASLTVSGLQAEDEAEYYCSSYTDIHNFVFGGGTKLTVLGGGSGGGGEVQLVESGGGLVQPGGSLRLSCAASGFTFSTYAMNWVRQAPGKGLEWVGRIRSKYNNYATYYADSVKGRFTISRDDSKNSLYLQMNSLKTEDTAVYYCVRHGNFGNSYVSWFAYWGQGTLVTVSSGGCGGGEVAALEKEVAALEKEVAALEKEVAALEK
chain 2: QAVVTQEPSLTVSPGGTVTLTCRSSTGAVTTSNYANWVQQKPGQAPRGLIGGTNKRAPWTPARFSGSLLGGKAALTITGAQAEDEADYYCALWYSNLWVFGGGTKLTVLGGGGSGGGGQVQLQESGPGLVKPSQTLSLSCTVSGGSSSSGAHYWSWIRQYPGKGLEWIGYIHYSGNTYYNPSLKSRITISQHTSENQFSLKLNSVTVADTAVYYCARGTRLRTLRNAFDIWGQGTLVTVSSGGCGGGKVAALKEKVAALKEKVAALKEKVAALKE
B2: anti-CD3 × anti-HIV env bispecific diabody (anti-HIV env antibody 7B2 and humanized anti-CD3 Antibody 2 binding domains) (bispecific antibody)
chain 1: DIVMTQSPDSLAVSPGERATIHCKSSQTLLYSSNNRHSIAWYQQRPGQPPKLLLYWASMRLSGVPDRFSGSGSGTDFTLTINNLQAEDVAIYYCHQYSSHPPTFGHGTRVEIKGGGSGGGGEVQLVESGGGLVQPGGSLRLSCAASGFTFSTYAMNWVRQAPGKGLEWVGRIRSKYNNYATYYADSVKGRFTISRDDSKNSLYLQMNSLKTEDTAVYYCVRHGNFGNSYVSWFAYWGQGTLVTVSSGGCGGGEVAALEKEVAALEKEVAALEKEVAALEK
chain 2: QAVVTQEPSLTVSPGGTVTLTCRSSTGAVTTSNYANWVQQKPGQAPRGLIGGTNKRAPWTPARFSGSLLGGKAALTITGAQAEDEADYYCALWYSNLWVFGGGTKLTVLGGGGSGGGGQVQLVQSGGGVFKPGGSLRLSCEASGFTFTEYYMTWVRQAPGKGLEWLAYISKNGEYSKYSPSSNGRFTISRDNAKNSVFLQLDRLSADDTAVYYCARADGLTYFSELLQYIFDLWGQGARVTVSSGGCGGGKVAALKEKVAALKEKVAALKEKVAALKE

Key:
[1] = target: HIV gp160 (HxB2) expressed by tetracycline-induced Jurkat 522 FY cells (HIV (HxB2), UniProt P04578 33-856); assay: cell-based or functional assay
[2] = target: HIV gp140 (CM244, subtype AE, R5-tropic) expressed by HEK 293 D371 cells (HIV (CM244, subtype AE)); assay: cell-based or functional assay

Binder	EC50 (ng/mL) of CD8-mediated cytotoxicity, pan T cells, 24 h [1]	EC50 (ng/mL) of CD8-mediated cytotoxicity, pan T cells, 24 h [2]
B1	0.75 ng/mL	0.024 ng/mL
B2	0.49 ng/mL	0.006 ng/mL
